Reference: article PMC12494820, “Predicting input signals of transcription factors in Escherichia coli” (Molecular Systems Biology, 2025)

How the values were obtained:
[1] = tested on: LeuO (Escherichia coli); experiment: EMSA; conditions: EMSA: 10 mM Tris-HCl, 50 mM KCl, 5 mM MgCl2, 5% glycerol, 0.1 mg/ml BSA, pH 7.5, 500 ng salmon sperm DNA in 20 µl, 15 min at room temperature; gel 0.5x TBE at …
[2] = target: T1, LeuO (Escherichia coli, UniProt P10151); experiment: thermal shift assay (Protein Thermal Shift Dye); format: binding; conditions: 10 mM compound; LeuO with leuLABCD promoter DNA; pH 7.5, EMSA buffer without BSA; activating effector
T1 sequence (P10151 1-314): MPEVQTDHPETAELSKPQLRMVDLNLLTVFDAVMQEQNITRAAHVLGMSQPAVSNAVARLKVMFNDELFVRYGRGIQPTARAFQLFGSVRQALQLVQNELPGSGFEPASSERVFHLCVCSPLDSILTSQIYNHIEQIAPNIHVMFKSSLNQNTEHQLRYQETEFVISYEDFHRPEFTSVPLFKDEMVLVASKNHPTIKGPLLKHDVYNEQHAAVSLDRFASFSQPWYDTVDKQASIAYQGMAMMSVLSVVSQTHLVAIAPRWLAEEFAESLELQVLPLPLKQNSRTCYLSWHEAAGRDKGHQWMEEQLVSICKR

Compound | K half [1] | ΔTm [2]
leuLABCD promoter region fragment | 25 nM | 
CC(C)[C@@](O)(CC(=O)O)C(=O)O [2-IPM, 2-isopropylmalate] |  | 1.6 °C
